In patent EP1808439A2:

Target: epiligrin-ECM^t (trypsin-treated HFK-ECM) (human) (UniProt Q16787)
Test: cell-based or functional assay

Chain of UniProt Q16787 (Q16787 other isoform, or with tags, fused parts or gaps): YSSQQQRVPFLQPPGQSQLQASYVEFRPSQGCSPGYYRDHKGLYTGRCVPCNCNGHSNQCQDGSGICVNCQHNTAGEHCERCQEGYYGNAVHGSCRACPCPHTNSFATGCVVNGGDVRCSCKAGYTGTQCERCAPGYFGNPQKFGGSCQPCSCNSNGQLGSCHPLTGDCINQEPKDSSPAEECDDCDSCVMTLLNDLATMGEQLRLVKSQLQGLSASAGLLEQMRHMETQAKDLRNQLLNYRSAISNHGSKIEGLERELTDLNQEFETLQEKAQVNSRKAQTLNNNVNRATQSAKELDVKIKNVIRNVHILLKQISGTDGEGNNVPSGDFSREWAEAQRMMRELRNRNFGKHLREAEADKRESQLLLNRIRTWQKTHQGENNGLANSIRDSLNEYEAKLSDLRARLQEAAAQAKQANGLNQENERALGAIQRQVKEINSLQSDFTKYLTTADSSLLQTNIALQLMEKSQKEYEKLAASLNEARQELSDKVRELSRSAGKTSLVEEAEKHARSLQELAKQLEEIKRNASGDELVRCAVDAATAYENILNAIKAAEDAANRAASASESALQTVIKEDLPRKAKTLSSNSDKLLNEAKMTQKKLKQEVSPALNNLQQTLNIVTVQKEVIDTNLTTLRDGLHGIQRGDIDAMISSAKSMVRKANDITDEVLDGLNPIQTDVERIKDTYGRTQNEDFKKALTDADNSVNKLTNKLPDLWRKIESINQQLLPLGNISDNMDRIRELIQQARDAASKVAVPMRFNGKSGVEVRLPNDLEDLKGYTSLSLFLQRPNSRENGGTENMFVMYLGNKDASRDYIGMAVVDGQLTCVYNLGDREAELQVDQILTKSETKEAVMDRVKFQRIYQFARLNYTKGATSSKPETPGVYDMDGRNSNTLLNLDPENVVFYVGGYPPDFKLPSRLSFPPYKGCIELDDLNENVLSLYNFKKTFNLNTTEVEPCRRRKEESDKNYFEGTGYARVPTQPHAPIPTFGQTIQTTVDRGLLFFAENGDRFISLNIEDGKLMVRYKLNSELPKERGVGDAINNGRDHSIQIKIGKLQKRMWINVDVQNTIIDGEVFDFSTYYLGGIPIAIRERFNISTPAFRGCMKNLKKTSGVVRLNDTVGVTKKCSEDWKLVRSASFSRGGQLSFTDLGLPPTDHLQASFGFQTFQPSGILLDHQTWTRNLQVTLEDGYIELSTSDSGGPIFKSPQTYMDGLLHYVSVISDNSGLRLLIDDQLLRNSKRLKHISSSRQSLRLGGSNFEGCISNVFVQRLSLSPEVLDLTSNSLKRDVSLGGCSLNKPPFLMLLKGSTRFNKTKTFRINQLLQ

Substance: integrin α6β4, P23229 24-1130; P16144 28-1822
- % adherent cells, 51Cr-labelled HFK on epiligrin-ECM^t, 4°C, 0 min: 30%
- % adherent cells, 51Cr-labelled HFK on epiligrin-ECM^t, 4°C, 2 min: 28%
- % adherent cells, 51Cr-labelled HFK on epiligrin-ECM^t, 4°C, 5 min: 28%
- % adherent cells, 51Cr-labelled HFK on epiligrin-ECM^t, 4°C, 10 min: 25%
- % adherent cells, 51Cr-labelled HFK on epiligrin-ECM^t, 4°C, 15 min: 37%
- % adherent cells, 51Cr-labelled HFK on epiligrin-ECM^t, 4°C, 25 min: 35%
- % adherent cells, 51Cr-labelled HFK on epiligrin-ECM^t, 4°C, 30 min: 31%
- % adherent cells, 51Cr-labelled HFK on epiligrin-ECM^t, 4°C, 45 min: 30%
- % adherent cells, 51Cr-labelled HFK on epiligrin-ECM^t, 4°C, 60 min: 35%
- % adherent cells, 51Cr-labelled HFK on epiligrin-ECM^t, 37°C, 0 min: 0%
- % adherent cells, 51Cr-labelled HFK on epiligrin-ECM^t, 37°C, 2 min: 10%
- % adherent cells, 51Cr-labelled HFK on epiligrin-ECM^t, 37°C, 5 min: 10%
- % adherent cells, 51Cr-labelled HFK on epiligrin-ECM^t, 37°C, 10 min: 20%
- % adherent cells, 51Cr-labelled HFK on epiligrin-ECM^t, 37°C, 15 min: 26%
- % adherent cells, 51Cr-labelled HFK on epiligrin-ECM^t, 37°C, 25 min: 36%
- % adherent cells, 51Cr-labelled HFK on epiligrin-ECM^t, 37°C, 30 min: 38%
- % adherent cells, 51Cr-labelled HFK on epiligrin-ECM^t, 37°C, 45 min: 50%
- % adherent cells, 51Cr-labelled HFK on epiligrin-ECM^t, 37°C, 60 min: 60%
